Reference: patent US20120190612A1, “METHODS OF TREATMENT” (CRC FOR ASTHMA AND AIRWAYS LTD., priority 2009, published 2012)

Experiments:
[1] = tested on: human primary lymphatic endothelial cells (HMVEC-LLy cells); experiment: MTT cell viability assay, lymphatic endothelial cells; assay type: cell-based
Experimental: To determine the function of lamstatin, human primary lymphatic endothelial cells (HMVEC-LLy cells) were exposed to various concentrations of lamstatin and an MTT assay was performed. As a comparison, commercially available tumstatin was used. Specifically, to assess cell viability 4×10^3 HMVEC-LLy cells were seeded per well in 100 μl complete EBM-2 media (with bullet kit, Lonza) and incubated for 2 hrs at 37° C., 5% CO2. After this period lamstatin, tumstatin and respective vehicles (1 nM EDTA, pH 3.0) were prepared in complete EBM-2 as serial dilutions in a separate plate and added. […] After 6 h of further incubation cells were lysed overnight with 10% SDS/0.01 M HCl and measured the following day in a plate reader at 570 nm.
The MTT assay was performed as described above.

[2] = tested on: lymphatic endothelial cells
Experimental: The MTT assay was performed as described above. […] To differentiate between antiproliferative and cytotoxic effects, cells were counted 72 hrs after treatment with various concentrations of lamstatin.

HMVEC-LLy cells = experiment: Real-time impedance (xCellgenix) cell attachment and proliferation; assay type: cell-based, human
Experimental: HMVEC-LLy cells were treated with lamstatin and cell attachment and proliferation were measured in realtime using the xCellgenix system (Roche). This system measures a cell index factor, representing impedance mediated by cells. Gold electrodes on the well bottom measure this impedance and the more cells attach to the bottom the higher the impedance (cell index). This measurement allows for detecting early events after treatment such as detachment (e.g. through cell death) or inhibition of proliferation and reduction of cell number.
A Xcellgenix gold coated microtiter plate was seeded with 5×10^3 cells (HMVEC-LLy) per well and incubated in 100 μL complete EBM-2 for 24 hrs prior to treatment. In fresh media, serial dilutions of lamstatin or vehicle (1 nM EDTA, pH 3.0) were prepared. Cell culture supernatant was removed and replaced by 100 μL fresh serially diluted lamstatin. The plate was locked into the Xcellgenix recorder and a signal of impedance recorded at 5 min intervals for 6 hrs, and subsequently every 60 min.

integrin β1 = target: T1, integrin β1 (Homo sapiens, UniProt P05556+P08648); experiment: Integrin binding of HMVEC-LLy cells on antibody-coated plates; assay type: cell-based; conditions: lamstatin 10 μg/ml, CP17 5 μM, 1 h
T1 construct: endogenous in cells; host or cells: HMVEC-LLy (human primary lymphatic endothelial cells)
Experimental: (§1) Antibodies for integrin α5 (MAB1956Z; MAB1953Z), integrin β1 (MAB2253Z) and integrin β3 (MAB1957Z) (all Millipore, USA) were coated to 96 well tissue culture plates (Nunc, USA) at a concentration of 10 μg/mL overnight at 4° C. in sterile coating buffer (50 mM Na2CO3, 50 mM NaHCO3, pH 9.6). Plates then were blocked with sterile 1% BSA/PBS for 1 h at 37° C. and washed twice with EBM-2 MV (Lonza, Basel, Switzerland). MMVEC-LLy cells were carefully removed from culture flasks with non-enzymatic detachment solution (Trevigen, Md., USA) and washed twice with EBM-2 (Lonza, Basel, Switzerland). Volume was adjusted to a cell concentration of 50,000 cells/100 μL and divided into aliquots for treatment with recombinant lamstatin (10 μg/ml), CP17 (5 μM) or vehicle (1 nM EDTA, pH 3.5) only. Cells were then transferred to the antibody-coated plates and incubated for 1 h at 37° C. Wells were then washed with HANKS twice to remove unbound cells and fixed with 4% paraformaldehyde (in PBS) for 15 min at room temperature. Wells thereafter were photographed with an Olypmus CAMEDIA C-4000 camera mounted to an Olympus CK2 microscope. Pictures were divided into 25 segments and cells of 5 center-near quadrants were counted and averaged. […] Using a similar approach, the inventors observed no expression of integrin α4 on the surface of HMVEC-LLy cells (data not shown).

integrin α5 = target: T2, integrin α5 (Homo sapiens, UniProt P05556+P08648); experiment: as above; assay type: cell-based; conditions: lamstatin 10 μg/ml, CP17 5 μM, 1 h
T2 construct: endogenous in cells; host or cells: HMVEC-LLy (human primary lymphatic endothelial cells)
Experimental: as §1

integrin β3 = target: T3, integrin β3 (Homo sapiens, UniProt P05106); experiment: as above; assay type: cell-based; conditions: lamstatin 10 μg/ml, CP17 5 μM, 1 h
T3 construct: endogenous in cells; host or cells: HMVEC-LLy (human primary lymphatic endothelial cells)
Experimental: as §1

[3] = tested on: lung adenocarcinoma cells (LNM35 AAV-GFP); experiment: Mouse ear tumour plug model of tumour-induced lymphangiogenesis; assay type: in vivo
Experimental: A mouse ear tumour plug model was utilized in which green fluorescent protein (GFP)-tagged lung adenocarcinoma cells (LNM35 AAV-GFP) were injected between the two layers of skin of the ears of NOD/SCID mice. 1×10^6 tumour cells were embedded in […] growth factor free Matrigel® medium enriched with vehicle (1 nM EDTA, pH3.0) or lamstatin at either 10 μg/mL or 100 μg/mL. Mice were divided into three groups.
Group 1 (n=9): One ear of each mouse injected with tumour cells+10 μg/mL lamstatin; the other ear injected with tumour cells+vehicle control. Group 2 (n=9): One ear of each mouse injected with tumour cells+100 μg/mL lamstatin; the other ear injected with tumour cells+vehicle control. Group 3 (n=3): Each ear injected with Matrigel® only.
Injections were single shots such that at least 25 μL was injected. 12 days after injection were sacrificed by anesthetisation and cervical dislocation. Ears were removed for whole mount staining. Flaps of skin from each ear were carefully separated, fixed and stained for either the lymphatic endothelial cell specific marker LyVe-1 (rabbit polyclonal anti-LyVe-1 antibody detected using anti-rabbit Alexafluor 647) or the vascular endothelial cell specific marker PECAM (CD31 rat anti-mouse antibody clone MEC13.3 (Pharmingen), detected with […]). Tumour cells were visualised by detection of GFP expression. Images of representative regions of ears were obtained using a confocal microscope and LyVe-1 or PECAM staining was quantified.
Using the LyVe-1 whole mount stained mouse ear sections, the inventors further investigated the morphology of lymphatic vessel formation. Specifically confocal images were loaded into Image J software (www.sbweb.nih.gov/ij/), a 5×5 grid overlayed and vessels examined for branching and looping. The functionality of a lymphatic network is based on its maturity and in general it is accepted that a tumour induces a rather immature network formation. Reconnecting vessels (measured as loops) and increased branching (measured as branches) are signs of immature vessels induced by, for example, a tumour (see for example Shayan et al. Growth Factors 25, 417-425, 2007).
Branches were defined as two clearly distinguishable vessels that separate out without rejoining. Loops were defined as small, circular vessel structures in the same focal plane. Branches or loops were counted separately per image and mean values were calculated for each treatment group.

[4] = lamstatin 10 or 100 μg/mL, CP17 5 or 50 μA, vs vehicle

T1 sequence (P05556 21-798): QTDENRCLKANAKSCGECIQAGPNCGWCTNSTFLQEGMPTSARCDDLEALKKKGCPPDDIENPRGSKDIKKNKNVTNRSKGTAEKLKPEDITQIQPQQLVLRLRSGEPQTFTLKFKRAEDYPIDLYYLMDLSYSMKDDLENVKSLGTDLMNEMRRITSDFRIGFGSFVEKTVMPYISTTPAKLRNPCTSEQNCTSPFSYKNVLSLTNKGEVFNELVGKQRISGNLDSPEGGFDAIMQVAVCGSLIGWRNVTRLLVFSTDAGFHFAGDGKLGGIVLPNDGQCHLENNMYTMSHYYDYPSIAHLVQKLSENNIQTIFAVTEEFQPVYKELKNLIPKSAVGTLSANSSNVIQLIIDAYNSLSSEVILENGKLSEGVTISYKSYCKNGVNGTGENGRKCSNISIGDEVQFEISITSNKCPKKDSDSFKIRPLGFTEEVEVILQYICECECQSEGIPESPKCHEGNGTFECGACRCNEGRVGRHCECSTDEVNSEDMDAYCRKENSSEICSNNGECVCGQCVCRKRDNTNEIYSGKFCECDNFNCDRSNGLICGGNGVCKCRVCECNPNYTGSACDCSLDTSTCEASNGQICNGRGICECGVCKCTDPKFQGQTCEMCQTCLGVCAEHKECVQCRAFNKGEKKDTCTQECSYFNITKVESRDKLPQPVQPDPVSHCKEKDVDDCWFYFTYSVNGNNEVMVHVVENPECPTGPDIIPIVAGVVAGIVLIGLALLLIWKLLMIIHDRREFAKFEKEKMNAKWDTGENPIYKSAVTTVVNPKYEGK
T1 sequence (P08648 42-894 limits assumed): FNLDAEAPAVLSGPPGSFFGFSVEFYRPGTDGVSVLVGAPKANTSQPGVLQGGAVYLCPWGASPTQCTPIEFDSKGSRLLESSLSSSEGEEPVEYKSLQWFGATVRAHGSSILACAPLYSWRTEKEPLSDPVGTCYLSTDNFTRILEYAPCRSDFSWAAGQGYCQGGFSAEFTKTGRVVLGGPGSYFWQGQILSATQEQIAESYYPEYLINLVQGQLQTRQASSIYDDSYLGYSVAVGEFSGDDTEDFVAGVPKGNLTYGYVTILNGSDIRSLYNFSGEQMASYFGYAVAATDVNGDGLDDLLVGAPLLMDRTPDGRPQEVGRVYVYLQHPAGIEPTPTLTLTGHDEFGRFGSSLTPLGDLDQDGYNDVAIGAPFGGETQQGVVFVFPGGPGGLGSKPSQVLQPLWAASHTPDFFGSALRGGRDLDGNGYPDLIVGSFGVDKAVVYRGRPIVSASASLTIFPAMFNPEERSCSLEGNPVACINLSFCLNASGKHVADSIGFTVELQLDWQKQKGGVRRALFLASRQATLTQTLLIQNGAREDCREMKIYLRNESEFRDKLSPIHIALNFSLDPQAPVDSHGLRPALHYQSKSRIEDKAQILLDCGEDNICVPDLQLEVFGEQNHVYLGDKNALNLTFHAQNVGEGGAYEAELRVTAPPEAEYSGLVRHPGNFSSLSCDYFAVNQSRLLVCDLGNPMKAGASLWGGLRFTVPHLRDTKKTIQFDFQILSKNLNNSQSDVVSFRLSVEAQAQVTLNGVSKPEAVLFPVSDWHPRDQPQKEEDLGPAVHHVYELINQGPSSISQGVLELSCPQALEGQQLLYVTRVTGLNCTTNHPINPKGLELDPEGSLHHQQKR
T1 sequence (P08648 895-1049 limits assumed): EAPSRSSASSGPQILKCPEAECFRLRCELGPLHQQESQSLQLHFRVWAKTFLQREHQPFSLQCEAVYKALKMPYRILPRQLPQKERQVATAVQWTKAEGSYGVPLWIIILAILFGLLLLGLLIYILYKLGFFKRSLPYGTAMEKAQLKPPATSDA
T2 sequence (P08648 42-894 limits assumed): as the sequence (P08648 42-894 limits assumed) above
T2 sequence (P08648 895-1049 limits assumed): as the sequence (P08648 895-1049 limits assumed) above
T2 sequence (P05556 21-798): as the sequence (P05556 21-798) above
T3 sequence (P05106 27-788): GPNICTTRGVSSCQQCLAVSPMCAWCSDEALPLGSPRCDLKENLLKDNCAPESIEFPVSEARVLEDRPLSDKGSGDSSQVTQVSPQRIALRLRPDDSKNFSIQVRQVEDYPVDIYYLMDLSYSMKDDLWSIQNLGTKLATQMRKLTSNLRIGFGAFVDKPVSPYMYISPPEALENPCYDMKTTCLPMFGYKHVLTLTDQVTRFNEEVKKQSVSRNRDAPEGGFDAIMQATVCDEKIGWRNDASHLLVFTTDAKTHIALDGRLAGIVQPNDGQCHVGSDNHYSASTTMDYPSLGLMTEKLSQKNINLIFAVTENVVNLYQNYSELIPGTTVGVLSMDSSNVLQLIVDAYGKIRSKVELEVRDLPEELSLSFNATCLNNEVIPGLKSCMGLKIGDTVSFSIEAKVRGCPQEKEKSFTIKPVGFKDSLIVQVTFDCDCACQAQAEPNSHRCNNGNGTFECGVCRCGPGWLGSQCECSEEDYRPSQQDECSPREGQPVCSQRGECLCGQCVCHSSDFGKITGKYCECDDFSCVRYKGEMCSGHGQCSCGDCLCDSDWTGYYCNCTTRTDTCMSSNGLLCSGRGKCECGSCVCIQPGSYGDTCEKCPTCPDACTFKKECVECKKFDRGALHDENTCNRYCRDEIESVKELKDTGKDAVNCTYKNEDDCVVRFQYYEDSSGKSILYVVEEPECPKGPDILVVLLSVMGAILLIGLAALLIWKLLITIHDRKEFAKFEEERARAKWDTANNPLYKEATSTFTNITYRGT
T3 sequence (P06756 31-889 limits assumed, further chain): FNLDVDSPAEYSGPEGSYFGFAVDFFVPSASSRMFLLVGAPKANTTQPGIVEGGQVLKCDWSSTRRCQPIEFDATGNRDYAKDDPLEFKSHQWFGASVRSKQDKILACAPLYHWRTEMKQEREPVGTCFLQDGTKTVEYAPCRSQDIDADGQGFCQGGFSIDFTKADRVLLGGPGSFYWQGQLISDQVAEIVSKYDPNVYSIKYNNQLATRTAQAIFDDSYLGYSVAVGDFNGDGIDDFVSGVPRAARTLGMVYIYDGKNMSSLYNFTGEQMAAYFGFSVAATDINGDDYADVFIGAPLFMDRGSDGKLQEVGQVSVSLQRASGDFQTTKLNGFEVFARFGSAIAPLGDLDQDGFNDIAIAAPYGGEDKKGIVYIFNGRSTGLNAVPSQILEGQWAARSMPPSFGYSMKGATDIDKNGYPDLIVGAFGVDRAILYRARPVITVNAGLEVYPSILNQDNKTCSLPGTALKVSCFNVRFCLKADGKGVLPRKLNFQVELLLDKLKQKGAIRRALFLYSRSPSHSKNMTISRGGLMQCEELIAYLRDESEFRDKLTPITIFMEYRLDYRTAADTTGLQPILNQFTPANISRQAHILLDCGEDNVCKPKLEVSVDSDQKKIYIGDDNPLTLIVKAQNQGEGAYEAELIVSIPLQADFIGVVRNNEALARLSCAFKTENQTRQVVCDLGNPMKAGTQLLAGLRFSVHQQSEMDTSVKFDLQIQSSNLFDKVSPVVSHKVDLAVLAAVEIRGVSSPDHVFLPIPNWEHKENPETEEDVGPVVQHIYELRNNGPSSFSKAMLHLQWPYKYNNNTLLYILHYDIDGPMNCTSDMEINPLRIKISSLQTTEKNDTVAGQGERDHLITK
T3 sequence (P06756 891-1048 limits assumed, further chain): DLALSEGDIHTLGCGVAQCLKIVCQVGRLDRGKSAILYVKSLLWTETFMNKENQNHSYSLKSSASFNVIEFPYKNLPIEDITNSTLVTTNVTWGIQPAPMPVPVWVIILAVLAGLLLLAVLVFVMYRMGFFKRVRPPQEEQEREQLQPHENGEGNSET

B1: lamstatin: NC1 domain of the α5 chain of collagen type IV; human amino acid sequence SEQ ID NO:1; recombinant (protein, listed as Homo sapiens)
chain: GFLITRHSQTTDAPQCPQGTLQVYEGFSLLYVQGNKRAHGQDLGTAGSCLRRFSTMPFMFCNINNVCNFASRNDYSYWLSTPEPMPMSMQPLKGQSIQPFISRCAVCEAPAVVIAVHSQTIQIPHCPQGWDSLWIGYSFMMHTSAGAEGSGQALASPGSCLEEFRSAPFIECHGRGTCNYYANSYSFWLATVDVSDMFSKPQSETLKAGDLRTRISRCQVCMKRT
cell viability (MTT) ([1]; 24 hrs, data not shown): reduced cell viability | cell viability (MTT) ([1]; increasing concentrations, 72 hrs): decreased cell viability | viable cells (trypan blue exclusion) [2]: no cytotoxic effect | cell count ([2]; 10 μg/mL, 72 hrs after treatment, data not shown): anti-proliferative effect was observed | time required to reach a threshold cell index of 1, compared with vehicle control (HMVEC-LLy cells; 10 μg/mL): double | cell attachment (HMVEC-LLy cells; after 55 min of treatment, various concentrations): reduction in cell attachment | cell binding in presence of monoclonal antibody against integrin β1 (integrin β1): significantly inhibited cell binding | cell binding in presence of monoclonal antibody against integrin α5 (integrin α5): significantly inhibited cell binding | cell binding in presence of monoclonal antibody against integrin β3 (integrin β3): no effect on binding | lymphatic vessel formation around the tumour (visual inspection) ([3]; 10 μg/mL): reduction in the number of lymphatic vessels and a dilation of lymphatic vessels | PECAM staining in the vicinity of tumour cells ([3]; 10 μg/mL or 100 μg/mL, 12 days): no obvious reduction | lymphatic vessel formation around the tumour (visual inspection) ([3]; 100 μg/mL, compared to 10 μg/mL): further reduction in lymphatic vessel network density | development of blood vasculature around the tumour ([3]; 10 and 100 μg/mL): no discernable effect | reduction of mean intensity of LyVe-1 staining compared to vehicle only ([3]; both 10 μg/mL and 100 μg/mL, whole mount ears, 12 days): approximately 60% | number of branches of lymphatic vessels [3, 4]: significantly reduced | number of loops of lymphatic vessels [3, 4]: significantly reduced
